Assay [1] has as its target UL25 of HSV-2 (component of the capsid-vertex-specific component, CVSC) (herpes simplex virus 2 strain MS) (UniProt P89448). The experiment in a line: cryo-EM structure; HSV-2 (MS strain) C-capsids assembled in infected Vero cells, detergent-treated (1% NP-40) and purified on sucrose gradients, in PBS; icosahedral plus block-based reconstruction, 3.75 Å overall (CVSC map 4.3 Å, CVSC head about 10 Å).

Assay [2] concerns the target small capsid protein VP26 of HSV-2 (herpes simplex virus 2 strain MS) (UniProt P89458). The assay is described as above.

As usually defined, the stoichiometry N is the number of molecules, sites or subunits per partner or assembly.

In the case of “UL25 of HSV-2 (component of the capsid-vertex-specific component, CVSC) (from UniProt P89448 1-585) (natural protein)”, the stoichiometry N in assay [1] was 2.

In the case of “small capsid protein VP26 of HSV-2 (from UniProt P89458 1-112) (natural protein)”, the stoichiometry N in assay [2] amounted to 6.

The values are drawn from article PMC6131487.
